Reference: patent publication US20250230224A1

Assays:
[1] = target: Mosaic botulinum neurotoxin BoNT/CD (Clostridium botulinum); experiment: KinExA flow fluorimetry, solution phase, IgG
[2] = target: Mosaic botulinum neurotoxin BoNT/DC (Clostridium botulinum); experiment: KinExA flow fluorimetry, solution phase, IgG
BoNT/F6 = experiment: KinExA, IgG
BoNT/F5 = experiment: KinExA, IgG
BoNT/F3 = experiment: KinExA, IgG
BoNT/F2 = experiment: KinExA, IgG
BoNT/F7 = experiment: KinExA, IgG
BoNT/F4 = experiment: KinExA, IgG

Row | Binder | Kd [1] [nM] | Kd [2] [nM] | Kd (BoNT/F6) [nM] | Kd (BoNT/F5) [nM] | Kd (BoNT/F3) [nM] | Kd (BoNT/F2) [nM] | Kd (BoNT/F7) [nM] | Kd (BoNT/F4) [nM]
1 | 4C4.4 IgG (antibody, V domains shown) VH: QVQLQESGPGLVKPSQTLSLTCTVSGASISNSPYFWNWFRQFPGKGLEWIGYIYWSGSTNYNPSLKSRLAMSVDTSKNQFSLKLTSATAADTAVYYCARDQGGGTVVKENWFDPWGQGTLVTVSS VL: DIVMTQSPSSLSASVGDRLTMTCQASQDIGKHLNWYQQKAGKPPKLLIYGASNLKTGVPSRFSAGVSWTDFTFTISNVQPEDVATYYCQQSYSTPPTFGQGTKVEIKR | 0.016 | 0.087 |  |  |  |  |  | 
2 | 8DC4.4 IgG (antibody, V domains shown) VH: QVQLQESGPGLVKPSQTLSLTCTVSGGSISSDNYFWTWIRQSPGKGLEWLGHISYSGRSYTNLSLKRRLTISVDTSKNQFSLNLNSVTAADTAVYYCARERLPPGRGYDMDVWGQGTTVTVSS VL: DIVMTQSPSSVSASVGDRVTITCRASRDISIYLNWYQQKPGKAPKLLIYAASNLETGVPSRFSGSGSGTDFTLTISSLQPEDVATYYCQQSYNTPLTFGGGTKLEIKR | 0.117 | 0.146 |  |  |  |  |  | 
3 | 6F5.4 IgG (antibody, V domains shown) VH: EVQLVPSGGNLVQPGGSLRLSCAATGPIDYHWMTWVRQAPGQGLEWVANINLDGTEKFYVDSVKGRFTVSRDNRKSSVFLQMNNLRVDDTAVYYCARLQWGERDGWLSPWGQGTLVTVSS VL: DIVMTQSPPSLSASVGDRVRLTCRASQSIGRSLNWYQQKPGKAPKLLIYDASALHSGVPSRFSGSGSGTDFTLTISGLQPEDFATYYCQQTNDLPVTFGGGTKLEIKR |  |  | 0.0004 | 0.00588 | 0.00519 | 0.00016 | 0.00374 | 0.0258
4 | Hu6F11 IgG (antibody, V domains shown) VH: EVQLVESGGGLVKPGGSLRLSCAASGFTFSNYGMSWVRQAPGKGLEWVASISSGGSYIYYPDSVKGRFTISRDNAKNSLYLQMNSLRAEDTAVYYCARRKGYDSLYWYFDVWGQGTLVTVSS VL: DVVMTQSPSSLSAFVGDRVTITCRASQGIRSYLAWFQQKPGKAPKLLIYAASTLQSGVPSRFSGSGSGTEFTLTVSGLQPEDFATYYCQQYNSYPLTFGGGTRLEIKR |  |  | 0.0037 | 0.0218 | 0.00803 | 0.0283 | 0.00334 | 0.0137
5 | Hu6F13.4 IgG (antibody, V domains shown) VH: QVQLVQSGAEVKKPGASVKVSCKASGYSFTSYWMHWVRQAPGQGLEWIGFINPINGGIIYNEKFRFRATLTVDTSISTAYMELSRLRSDDTAVYYCARAGYYGSSRHFDVWGQGTLLTVSS VL: ETTLTQSPSSLSASVGDRVTITCRASQGIRNYLAWYQQKPGKAPKLLIYDASNLETGVPSRFSGSGSGTDFTFTISSLQPEDFATYYCLQTSSTPWTFGQGTKVDIKR |  |  | 0.172 | 0.0172 | 0.297 | 0.216 | 0.206 | 0.405
